From the supplement of paper PMC5998384

Experiments:
HeLa Kyoto [1] = assay: solubility in G1/S (NP-40 vs SDS abundance) (log2 ratio); higher = more soluble; settings: cell cycle stage: G1/S
HeLa Kyoto [2] = assay: solubility change mitosis vs G1/S (difference of NP-40 vs SDS log2 ratios) (log2 ratio difference); higher = more soluble in mitosis
HeLa Kyoto [3] = assay: melting temperature (median over replicates), in situ; higher = more thermally stable
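Throughout, for melting temperature (median over replicates), in situ: HeLa Kyoto cells synchronized by double thymidine or nocodazole block, proteins quantified by TMT10plex mass spectrometry, three independent biological replicates.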
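Throughout, for solubility change mitosis vs G1/S (difference of NP-40 vs SDS log2 ratios): synchronized HeLa Kyoto cells (double thymidine block for G1/S, nocodazole release for mitosis), protein amounts in NP-40 versus SDS lysates quantified by mass spectrometry, three biological replicates.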
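Throughout, for solubility in G1/S (NP-40 vs SDS abundance): HeLa Kyoto cells arrested at G1/S by double thymidine block, proteins quantified by TMT10plex mass spectrometry in mild NP-40 versus SDS extracts, three biological replicates.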

Row | Substance | solubility in G1/S (log2) (HeLa Kyoto [1]) | solubility change mitosis (log2) (HeLa Kyoto [2]) | melting temperature (HeLa Kyoto [3]; cell cycle stage: G1/S) [°C] | melting temperature (HeLa Kyoto [3]; cell cycle stage: mitosis) [°C]
1 | MTTKDYPSLWGFGTTKTFKIPIEHLDFKYIEKCSDVKHLEKILCVLRSGEEGYYPELTEFCEKHLQALAPESRALRKDKPAATAASFTAEEWEKIDGDIKSWVSEIKKEEDKMHFHETETFPAMKDNLPPVRGSNSCLHVGKEKYSKRPTKKKTPRDYAEWDKFDVEKECLKIDEDYKEKTVIDKSHLSKIETRIDTAGLTEKEKDFLATREKEKGNEAFNSGDYEEAVMYYTRSISALPTVVAYNNRAQAEIKLQNWNSAFQDCEKVLELEPGNVKALLRRATTYKHQNKLREATEDLSKVLDVEPDNDLAKKTLSEVERDLKNSEAASETQTKGKRMVIQEIENSEDEEGKSGRKHEDGGGDKKPAEPAGAARAAQPCVMGNIQKKLTGKAEGGKRPARGAPQRGQTPEAGADKRSPRRASAAAAAGGGATGHPGGGQGAENPAGLKSQGNELFRSGQFAEAAGKYSAAIALLEPAGSEIADDLSILYSNRAACYLKEGNCSGCIQDCNRALELHPFSMKPLLRRAMAYETLEQYGKAYVDYKTVLQIDCGLQLANDSVNRLSRILMELDGPNWREKLSPIPAVPASVPLQAWHPAKEMISKQAGDSSSHRQQGITDEKTFKALKEEGNQCVNDKNYKDALSKYSECLKINNKECAIYTNRALCYLKLCQFEEAKQDCDQALQLADGNVKAFYRRALAHKGLKNYQKSLIDLNKVILLDPSIIEAKMELEEVTRLLNLKDKTAPFNKEKERRKIEIQEVNEGKEEPGRPAGEVSMGCLASEKGGKSSRSPEDPEKLPIAKPNNAYEFGQIINALSTRKDKEACAHLLAITAPKDLPMFLSNKLEGDTFLLLIQSLKNNLIEKDPSLVYQHLLYLSKAERFKMMLTLISKGQKELIEQLFEDLSDTPNNHFTLEDIQALKRQYEL [SPAG1] | 0.51 | -0.0757 | 49.2 | 48.5
2 | MVGEMETKEKPKPTPDYLMQLMNDKKLMSSLPNFCGIFNHLERLLDEEISRVRKDMYNDTLNGSTEKRSAELPDAVGPIVQLQEKLYVPVKEYPDFNFVGRILGPRGLTAKQLEAETGCKIMVRGKGSMRDKKKEEQNRGKPNWEHLNEDLHVLITVEDAQNRAEIKLKRAVEEVKKLLVPAAEGEDSLKKMQLMELAILNGTYRDANIKSPALAFSLAATAQAAPRIITGPAPVLPPAALRTPTPAGPTIMPLIRQIQTAVMPNGTPHPTAAIVPPGPEAGLIYTPYEYPYTLAPATSILEYPIEPSGVLGAVATKVRRHDMRVHPYQRIVTADRAATGN [QKI] | 0.613 | -0.0775 | 50.2 | 49.8
3 | MVNSSRVQPQQPGDAKRPPAPRAPDPGRLMAGCAAVGASLAAPGGLCEQRGLEIEMQRIRQAAARDPPAGAAASPSPPLSSCSRQAWSRDNPGFEAEEEEEEVEGEEGGMVVEMDVEWRPGSRRSAASSAVSSVGARSRGLGGYHGAGHPSGRRRRREDQGPPCPSPVGGGDPLHRHLPLEGQPPRVAWAERLVRGLRGLWGTRLMEESSTNREKYLKSVLRELVTYLLFLIVLCILTYGMMSSNVYYYTRMMSQLFLDTPVSKTEKTNFKTLSSMEDFWKFTEGSLLDGLYWKMQPSNQTEADNRSFIFYENLLLGVPRIRQLRVRNGSCSIPQDLRDEIKECYDVYSVSSEDRAPFGPRNGTAWIYTSEKDLNGSSHWGIIATYSGAGYYLDLSRTREETAAQVASLKKNVWLDRGTRATFIDFSVYNANINLFCVVRLLVEFPATGGVIPSWQFQPLKLIRYVTTFDFFLAACEIIFCFFIFYYVVEEILEIRIHKLHYFRSFWNCLDVVIVVLSVVAIGINIYRTSNVEVLLQFLEDQNTFPNFEHLAYWQIQFNNIAAVTVFFVWIKLFKFINFNRTMSQLSTTMSRCAKDLFGFAIMFFIIFLAYAQLAYLVFGTQVDDFSTFQECIFTQFRIILGDINFAEIEEANRVLGPIYFTTFVFFMFFILLNMFLAIINDTYSEVKSDLAQQKAEMELSDLIRKGYHKALVKLKLKKNTVDDISESLRQGGGKLNFDELRQDLKGKGHTDAEIEAIFTKYDQDGDQELTEHEHQQMRDDLEKEREDLDLDHSSLPRPMSSRSFPRSLDDSEEDDDEDSGHSSRRRGSISSGVSYEEFQVLVRRVDRMEHSIGSIVSKIDAVIVKLEIMERAKLKRREVLGRLLDGVAEDERLGRDSEIHREQMERLVREELERWESDDAASQISHGLGTPVGLNGQPRPRSSRPSSSQSTEGMEGAGGNGSSNVHV [PKD2] | 0.00411 | -0.0995 | 52.1 | 
4 | MVPGSEGPARAGSVVADVVFVIEGTANLGPYFEGLRKHYLLPAIEYFNGGPPAETDFGGDYGGTQYSLVVFNTVDCAPESYVQCHAPTSSAYEFVTWLDGIKFMGGGGESCSLIAEGLSTALQLFDDFKKMREQIGQTHRVCLLICNSPPYLLPAVESTTYSGCTTENLVQQIGERGIHFSIVSPRKLPALRLLFEKAAPPALLEPLQPPTDVSQDPRHMVLVRGLVLPVGGGSAPGPLQSKQPVPLPPAAPSGATLSAAPQQPLPPVPPQYQVPGNLSAAQVAAQNAVEAAKNQKAGLGPRFSPITPLQQAAPGVGPPFSQAPAPQLPPGPPGAPKPPPASQPSLVSTVAPGSGLAPTAQPGAPSMAGTVAPGGVSGPSPAQLGAPALGGQQSVSNKLLAWSGVLEWQEKPKPASVDANTKLTRSLPCQVYVNHGENLKTEQWPQKLIMQLIPQQLLTTLGPLFRNSRMVQFHFTNKDLESLKGLYRIMGNGFAGCVHFPHTAPCEVRVLMLLYSSKKKIFMGLIPYDQSGFVNGIRQVITNHKQVQQQKLEQQQRGMGGQQAPPGLGPILEDQARPSQNLLQLRPPQPQPQGTVGASGATGQPQPQGTAQPPPGAPQGPPGAASGPPPPGPILRPQNPGANPQLRSLLLNPPPPQTGVPPPQASLHHLQPPGAPALLPPPHQGLGQPQLGPPLLHPPPAQSWPAQLPPRAPLPGQMLLSGGPRGPVPQPGLQPSVMEDDILMDLI [MED25] | 0.612 | -0.172 | 52.1 | 50.9
5 | MVTEQEVDAIGQTLVDPKQPLQARFRALFTLRGLGGPGAIAWISQAFDDDSALLKHELAYCLGQMQDARAIPMLVDVLQDTRQEPMVRHEAGEALGAIGDPEVLEILKQYSSDPVIEVAETCQLAVRRLEWLQQHGGEPAAGPYLSVDPAPPAEERDVGRLREALLDESRPLFERYRAMFALRNAGGEEAALALAEGLHCGSALFRHEVGYVLGQLQHEAAVPQLAAALARCTENPMVRHECAEALGAIARPACLAALQAHADDPERVVRESCEVALDMYEHETGRAFQYADGLEQLRGAPS [DOHH] | 0.137 | 0.308 | 50.3 | 50.6
6 | MWVCSTLWRVRTPARQWRGLLPASGCHGPAASSYSASAEPARVRALVYGHHGDPAKVVELKNLELAAVRGSDVRVKMLAAPINPSDINMIQGNYGFLPELPAVGGNEGVAQVVAVGSNVTGLKPGDWVIPANAGLGTWRTEAVFSEEALIQVPSDIPLQSAATLGVNPCTAYRMLMDFEQLQPGDSVIQNASNSGVGQAVIQIAAALGLRTINVVRDRPDIQKLSDRLKSLGAEHVITEEELRRPEMKNFFKDMPQPRLALNCVGGKSSTELLRQLARGGTMVTYGGMAKQPVVASVSLLIFKDLKLRGFWLSQWKKDHSPDQFKELILTLCDLIRRGQLTAPACSQVPLQDYQSALEASMKPFISSKQILTM [MECR] | 0.282 | -0.0123 | 55 | 54.1
7 | PTPRS | 0.148 | -0.268 | 51.6 | 
8 | RCOR3 | 0.375 | 0.101 | 49.1 | 50
9 | USP32 | -0.319 | -0.0623 | 50.4 | 50.3
10 | ZFHX3 | -0.242 | 0.302 | 48.7 | 49.3
